This experiment concerns the target SPNct, C-terminal glycohydrolase domain of Streptococcus pyogenes beta-NAD+ glycohydrolase (SPN), residues 191-451 (Streptococcus pyogenes). The experiment is described as follows: crystal structure.

B1: Immunity factor for SPN (IFS), full length, residues 1-161 (natural protein)
chain: MYKVPKGLEHYQKMFQKEVTVNDLKKYLIGSDKEYRITRRDSYMGDISDPEVILEYGVYPAFIKGYTQLKANIEEALLEMSNSGQALDIYQAVQTLNAENMLLNYYESLPFYLNRQSILANITKALKDAHIREAMAHYKLGEFAHYQDTMLDMVERTIETF
modifications: selenomethionine in place of methionine in the derivative used for MAD phasing
As for B1, the stoichiometry N stood at 1.

These data come from paper PMC3056158.
